Assay results from publication PMC2754721 (Biochemistry, 2009).
Substitutions are numbered along the chain they refer to. Names and notes keep the numbering of the source.

B1: D402N nitroalkane oxidase (enzyme)
chain: MVDFKLSPSQLEARRHAQAFANTVLTKASAEYSTQKDQLSRFQATRPFYREAVRHGLIKAQVPIPLGGTMESLVHESIILEELFAVEPATSITIVATALGLMPVILCDSPSLQEKFLKPFISGEGEPLASLMHSEPNGTANWLQKGGPGLQTTARKVGNEWVISGEKLWPSNSGGWDYKGADLACVVCRVSDDPSKPQDPNVDPATQIAVLLVTRETIANNKKDAYQILGEPELAGHITTSGPHTRFTEFHVPHENLLCTPGLKAQGLVETAFAMSAALVGAMAIGTARAAFEEALVFAKSDTRGGSKHIIEHQSVADKLIDCKIRLETSRLLVWKAVTTLEDEALEWKVKLEMAMQTKIYTTDVAVECVIDAMKAVGMKSYAKDMSFPRLLNEVMCYPLFNGGNIGLRRRQMQRVMALEDYEPWAATYGSSKVDKSRL
B2: S276A nitroalkane oxidase (enzyme)
chain: B1 chain with S276A, N402D

Biological target: the molecule itself
Experiment: crystal structure

| Protein | stoichiometry N [subunits] |
| --- | --- |
| B1 | 4 |
| B2 | 4 |
